# Laboratory results reported in US20230338526A1 (BIO THERA SOLUTIONS, published 2023).
# T1: CD20 (human, UniProt P11836 1-297)
# T1 sequence (looked up): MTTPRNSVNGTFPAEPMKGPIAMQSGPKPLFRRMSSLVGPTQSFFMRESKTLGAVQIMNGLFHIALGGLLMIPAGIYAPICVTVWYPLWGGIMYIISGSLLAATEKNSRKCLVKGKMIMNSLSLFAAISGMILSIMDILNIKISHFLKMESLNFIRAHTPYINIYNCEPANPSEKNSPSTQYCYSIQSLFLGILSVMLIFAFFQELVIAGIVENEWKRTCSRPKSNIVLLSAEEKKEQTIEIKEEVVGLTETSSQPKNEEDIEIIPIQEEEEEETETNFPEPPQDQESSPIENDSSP
# B1: Rituximab (antibody, V domains shown)
# VH: QVQLQQPGAELVKPGASVKMSCKASGYTFTSYNMHWVKQTPGRGLEWIGAIYPGNGDTSYNQKFKGKATLTADKSSSTAYMQLSSLTSEDSAVYYCARSTYYGGDWYFNVWGAGTTVTVSA
# VL: QIVLSQSPAILSASPGEKVTMTCRASSSVSYIHWFQQKPGSSPKPWIYATSNLASGVPVRFSGSGSGTSYSLTISRVEAEDAATYYCQQWTSNPPTFGGGTKLEIK
# Assays:
# CD20 [1] = target: T1, CD20; experiment: cell-based or functional assay
# CD20 [2] = target: T1, CD20; experiment: cell-based or functional assay; remark: listed apart in the source
# CD20 [3] = target: T1, CD20; experiment: binding to CD20+ cells; method and cell line not stated
binder,measurement,setting,value
B1,"Percentage of whole blood B-cell depletion in vitro, 10 ng/ml",CD20 [1],17.8%
same,"Percentage of whole blood B-cell depletion in vitro, 50 ng/ml",CD20 [1],36%
same,"ADCC, PBMC method",CD20 [2],0.0496 nM
same,"ADCC, Reporter gene assay method",CD20 [2],0.019 nM
same,Binding to CD 20^+ cells,CD20 [3],10.2 nM
